The target in this series is myc-tagged full-length palmitoyl acyl transferase zinc-finger DHHC type containing 17 (zD17) (UniProt Q8IUH5).
myc-tagged full-length palmitoyl acyl transferase zinc-finger DHHC type containing 17 (zD17), sequence (Q8IUH5 whole entry): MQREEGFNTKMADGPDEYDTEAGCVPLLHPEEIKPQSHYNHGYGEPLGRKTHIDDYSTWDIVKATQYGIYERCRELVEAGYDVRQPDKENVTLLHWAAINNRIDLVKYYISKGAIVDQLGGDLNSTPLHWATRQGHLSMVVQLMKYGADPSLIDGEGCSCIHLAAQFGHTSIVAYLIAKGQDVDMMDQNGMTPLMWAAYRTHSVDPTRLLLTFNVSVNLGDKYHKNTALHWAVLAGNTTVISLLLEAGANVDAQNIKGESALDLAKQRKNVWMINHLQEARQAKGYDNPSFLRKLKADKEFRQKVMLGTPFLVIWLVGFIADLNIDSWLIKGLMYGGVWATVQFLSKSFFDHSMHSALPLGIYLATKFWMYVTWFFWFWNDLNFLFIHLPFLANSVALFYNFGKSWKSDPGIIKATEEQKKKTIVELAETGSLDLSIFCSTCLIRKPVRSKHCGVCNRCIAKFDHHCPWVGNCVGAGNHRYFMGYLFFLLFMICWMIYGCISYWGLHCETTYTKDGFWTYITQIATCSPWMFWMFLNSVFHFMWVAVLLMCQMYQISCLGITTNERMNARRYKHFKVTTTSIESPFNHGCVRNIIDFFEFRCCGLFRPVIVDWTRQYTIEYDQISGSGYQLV

Take FLAG-kiMKK7 (kinase-inactive MKK7): the JNK3 phosphorylation entry was “resulting in attenuated JNK3 phosphorylation”.

Source of the values: patent US20150225704.
